Source: article PMC8298264, “Function of cofactor Akirin2 in the regulation of gene expression in model human neutrophil-like HL60 cells” (Bioscience Reports, 2021)

B1: sp¦P35908¦K22E_HUMAN (protein, UniProt P35908 1-639, looked up)
Keratin, type II cytoskeletal …: MSCQISCKSRGRGGGGGGFRGFSSGSAVVSGGSRRSTSSFSCLSRHGGGGGGFGGGGFGSRSLVGLGGTKSISISVAGGGGGFGAAGGFGGRGGGFGGGSSFGGGSGFSGGGFGGGGFGGGRFGGFGGPGGVGGLGGPGGFGPGGYPGGIHEVSVNQSLLQPLNVKVDPEIQNVKAQEREQIKTLNNKFASFIDKVRFLEQQNQVLQTKWELLQQMNVGTRPINLEPIFQGYIDSLKRYLDGLTAERTSQNSELNNMQDLVEDYKKKYEDEINKRTAAENDFVTLKKDVDNAYMIKVELQSKVDLLNQEIEFLKVLYDAEISQIHQSVTDTNVILSMDNSRNLDLDSIIAEVKAQYEEIAQRSKEEAEALYHSKYEELQVTVGRHGDSLKEIKIEISELNRVIQRLQGEIAHVKKQCKNVQDAIADAEQRGEHALKDARNKLNDLEEALQQAKEDLARLLRDYQELMNVKLALDVEIATYRKLLEGEECRMSGDLSSNVTVSVTSSTISSNVASKAAFGGSGGRGSSSGGGYSSGSSSYGSGGRQSGSRGGSGGGGSISGGGYGSGGGSGGRYGSGGGSKGGSISGGGYGSGGGKHSSGGGSRGGSSSGGGYGSGGGGSSSVKGSSGEAFGSSVTFSFR
B2: sp¦Q8TCJ2¦STT3B_HUMAN (protein, UniProt Q8TCJ2 2-826, looked up)
Dolichyl-diphosphooligosacchar …: AEPSAPESKHKSSLNSSPWSGLMALGNSRHGHHGPGAQCAHKAAGGAAPPKPAPAGLSGGLSQPAGWQSLLSFTILFLAWLAGFSSRLFAVIRFESIIHEFDPWFNYRSTHHLASHGFYEFLNWFDERAWYPLGRIVGGTVYPGLMITAGLIHWILNTLNITVHIRDVCVFLAPTFSGLTSISTFLLTRELWNQGAGLLAACFIAIVPGYISRSVAGSFDNEGIAIFALQFTYYLWVKSVKTGSVFWTMCCCLSYFYMVSAWGGYVFIINLIPLHVFVLLLMQRYSKRVYIAYSTFYIVGLILSMQIPFVGFQPIRTSEHMAAAGVFALLQAYAFLQYLRDRLTKQEFQTLFFLGVSLAAGAVFLSVIYLTYTGYIAPWSGRFYSLWDTGYAKIHIPIIASVSEHQPTTWVSFFFDLHILVCTFPAGLWFCIKNINDERVFVALYAISAVYFAGVMVRLMLTLTPVVCMLSAIAFSNVFEHYLGDDMKRENPPVEDSSDEDDKRNQGNLYDKAGKVRKHATEQEKTEEGLGPNIKSIVTMLMLMLLMMFAVHCTWVTSNAYSSPSVVLASYNHDGTRNILDDFREAYFWLRQNTDEHARVMSWWDYGYQIAGMANRTTLVDNNTWNNSHIALVGKAMSSNETAAYKIMRTLDVDYVLVIFGGVIGYSGDDINKFLWMVRIAEGEHPKDIRESDYFTPQGEFRVDKAGSPTLLNCLMYKMSYYRFGEMQLDFRTPPGFDRTRNAEIGNKDIKFKHLEEAFTSEHWLVRIYKVKAPDNRETLDHKPRVTNIFPKQKYLSKKTTKRKRGYIKNKLVFKKGKKISKKTV
B3: sp¦Q9NRP0¦OSTC_HUMAN (protein, UniProt Q9NRP0 1-149, looked up)
Oligosaccharyltransferase …: METLYRVPFLVLECPNLKLKKPPWLHMPSAMTVYALVVVSYFLITGGIIYDVIVEPPSVGSMTDEHGHQRPVAFLAYRVNGQYIMEGLASSFLFTMGGLGFIILDRSNAPNIPKLNRFLLLFIGFVCVLLSFFMARVFMRMKLPGYLMG
B4: sp¦P61006¦RAB8A_HUMAN (protein, UniProt P61006 1-204, looked up)
Ras-related protein Rab-8A: MAKTYDYLFKLLLIGDSGVGKTCVLFRFSEDAFNSTFISTIGIDFKIRTIELDGKRIKLQIWDTAGQERFRTITTAYYRGAMGIMLVYDITNEKSFDNIRNWIRNIEEHASADVEKMILGNKCDVNDKRQVSKERGEKLALDYGIKFMETSAKANINVENAFFTLARDIKAKMDKKLEGNSPQGSNQGVKITPDQQKRSSFFRC
B5: sp¦P46977¦STT3A_HUMAN (protein, UniProt P46977 1-705, looked up)
Dolichyl-diphosphooligosacchar …: MTKFGFLRLSYEKQDTLLKLLILSMAAVLSFSTRLFAVLRFESVIHEFDPYFNYRTTRFLAEEGFYKFHNWFDDRAWYPLGRIIGGTIYPGLMITSAAIYHVLHFFHITIDIRNVCVFLAPLFSSFTTIVTYHLTKELKDAGAGLLAAAMIAVVPGYISRSVAGSYDNEGIAIFCMLLTYYMWIKAVKTGSICWAAKCALAYFYMVSSWGGYVFLINLIPLHVLVLMLTGRFSHRIYVAYCTVYCLGTILSMQISFVGFQPVLSSEHMAAFGVFGLCQIHAFVDYLRSKLNPQQFEVLFRSVISLVGFVLLTVGALLMLTGKISPWTGRFYSLLDPSYAKNNIPIIASVSEHQPTTWSSYYFDLQLLVFMFPVGLYYCFSNLSDARIFIIMYGVTSMYFSAVMVRLMLVLAPVMCILSGIGVSQVLSTYMKNLDISRPDKKSKKQQDSTYPIKNEVASGMILVMAFFLITYTFHSTWVTSEAYSSPSIVLSARGGDGSRIIFDDFREAYYWLRHNTPEDAKVMSWWDYGYQITAMANRTILVDNNTWNNTHISRVGQAMASTEEKAYEIMRELDVSYVLVIFGGLTGYSSDDINKFLWMVRIGGSTDTGKHIKENDYYTPTGEFRVDREGSPVLLNCLMYKMCYYRFGQVYTEAKRPPGFDRVRNAEIGNKDFELDVLEEAYTTEHWLVRIYKVKDLDNRGLSRT
B6: sp¦P20645¦MPRD_HUMAN (protein, UniProt P20645 27-277, looked up)
Cation-dependent …: TEEKTCDLVGEKGKESEKELALVKRLKPLFNKSFESTVGQGSDTYIYIFRVCREAGNHTSGAGLVQINKSNGKETVVGRLNETHIFNGSNWIMLIYKGGDEYDNHCGKEQRRAVVMISCNRHTLADNFNPVSEERGKVQDCFYLFEMDSSLACSPEISHLSVGSILLVTFASLVAVYVVGGFLYQRLVVGAKGMEQFPHLAFWQDLGNLVADGCDFVCRSKPRNVPAAYRGVGDDQLGEESEERDDHLLPM
B7: sp¦P57740¦NU107_HUMAN (protein, UniProt P57740 1-925, looked up)
Nuclear pore complex protein …: MDRSGFGEISSPVIREAEVTRTARKQSAQKRVLLQASQDENFGNTTPRNQVIPRTPSSFRQPFTPTSRSLLRQPDISCILGTGGKSPRLTQSSGFFGNLSMVTNLDDSNWAAAFSSQRSGLFTNTEPHSITEDVTISAVMLREDDPGEAASMSMFSDFLQSFLKHSSSTVFDLVEEYENICGSQVNILSKIVSRATPGLQKFSKTASMLWLLQQEMVTWRLLASLYRDRIQSALEEESVFAVTAVNASEKTVVEALFQRDSLVRQSQLVVDWLESIAKDEIGEFSDNIEFYAKSVYWENTLHTLKQRQLTSYVGSVRPLVTELDPDAPIRQKMPLDDLDREDEVRLLKYLFTLIRAGMTEEAQRLCKRCGQAWRAATLEGWKLYHDPNVNGGTELEPVEGNPYRRIWKISCWRMAEDELFNRYERAIYAALSGNLKQLLPVCDTWEDTVWAYFRVMVDSLVEQEIQTSVATLDETEELPREYLGANWTLEKVFEELQATDKKRVLEENQEHYHIVQKFLILGDIDGLMDEFSKWLSKSRNNLPGHLLRFMTHLILFFRTLGLQTKEEVSIEVLKTYIQLLIREKHTNLIAFYTCHLPQDLAVAQYALFLESVTEFEQRHHCLELAKEADLDVATITKTVVENIRKKDNGEFSHHDLAPALDTGTTEEDRLKIDVIDWLVFDPAQRAEALKQGNAIMRKFLASKKHEAAKEVFVKIPQDSIAEIYNQCEEQGMESPLPAEDDNAIREHLCIRAYLEAHETFNEWFKHMNSVPQKPALIPQPTFTEKVAHEHKEKKYEMDFGIWKGHLDALTADVKEKMYNVLLFVDGGWMVDVREDAKEDHERTHQMVLLRKLCLPMLCFLLHTILHSTGQYQECLQLADMVSSERHKLYLVFSKEELRKLLQKLRESSLMLLDQGLDPLGYEIQL
B8: sp¦Q15907¦RB11B_HUMAN (protein, UniProt Q15907 2-215, looked up)
Ras-related protein Rab-11B: GTRDDEYDYLFKVVLIGDSGVGKSNLLSRFTRNEFNLESKSTIGVEFATRSIQVDGKTIKAQIWDTAGQERYRAITSAYYRGAVGALLVYDIAKHLTYENVERWLKELRDHADSNIVIMLVGNKSDLRHLRAVPTDEARAFAEKNNLSFIETSALDSTNVEEAFKNILTEIYRIVSQKQIADRAAHDESPGNNVVDISVPPTTDGQKPNKLQCC
B9: sp¦P30048¦PRDX3_HUMAN (protein, UniProt P30048 62-256, looked up)
Thioredoxin-dependent …: APAVTQHAPYFKGTAVVNGEFKDLSLDDFKGKYLVLFFYPLDFTFVCPTEIVAFSDKANEFHDVNCEVVAVSVDSHFSHLAWINTPRKNGGLGHMNIALLSDLTKQISRDYGVLLEGSGLALRGLFIIDPNGVIKHLSVNDLPVGRSVEETLRLVKAFQYVETHGEVCPANWTPDSPTIKPSPAASKEYFQKVNQ
B10: sp¦P23381¦SYWC_HUMAN (protein, UniProt P23381 2-471, looked up)
Tryptophan--tRNA ligase, …: PNSEPASLLELFNSIATQGELVRSLKAGNASKDEIDSAVKMLVSLKMSYKAAAGEDYKADCPPGNPAPTSNHGPDATEAEEDFVDPWTVQTSSAKGIDYDKLIVRFGSSKIDKELINRIERATGQRPHHFLRRGIFFSHRDMNQVLDAYENKKPFYLYTGRGPSSEAMHVGHLIPFIFTKWLQDVFNVPLVIQMTDDEKYLWKDLTLDQAYSYAVENAKDIIACGFDINKTFIFSDLDYMGMSSGFYKNVVKIQKHVTFNQVKGIFGFTDSDCIGKISFPAIQAAPSFSNSFPQIFRDRTDIQCLIPCAIDQDPYFRMTRDVAPRIGYPKPALLHSTFFPALQGAQTKMSASDPNSSIFLTDTAKQIKTKVNKHAFSGGRDTIEEHRQFGGNCDVDVSFMYLTFFLEDDDKLEQIRKDYTSGAMLTGELKKALIEVLQPLIAEHQARRKEVTDEIVKEFMTPRKLSFDFQ

Each molecule was assayed on human HL60 cells (assay: SWATH-MS proteomics, differential protein representation, akirin2 KO vs WT HL60 cells). Settings: KO vs WT; akirin2 KO vs WT HL60 cells; sheet "Under-represented in KO".
Assay type: cell-based
How it was run: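 Proteins from WT and akirin2 KO HL60 cells (n=3 biological replicates) were FASP trypsin-digested and analyzed by SWATH-MS DIA with variable windows against an IDA-derived spectral library. Identifications at 1% global FDR; quantities normalized to total area sums of all detected proteins.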
With B1 the “Fold Change” value was 0.6196 and the “Log (Fold Change)” value was -0.2079.
B2 was tested, and the “Fold Change” value was 0.6204 and the “Log (Fold Change)” value was -0.2073.
For B3, the “Fold Change” value was 0.6247 and the “Log (Fold Change)” value was -0.2043.
For B4, the “Fold Change” value was 0.62 and the “Log (Fold Change)” value was -0.2076.

Same assay, conditions: akirin2 KO vs WT HL60 cells; sheet "Under-represented in KO"
For B5, the “Fold Change” value was 0.6295 and the “Log (Fold Change)” value was -0.201.
With B6 the “Fold Change” value was 0.6378 and the “Log (Fold Change)” value was -0.1953.
B7 was tested, and the “Fold Change” value was 0.6316 and the “Log (Fold Change)” value was -0.1995.
For B8, the “Fold Change” value was 0.6332 and the “Log (Fold Change)” value was -0.1984.
In the case of B9, the “Fold Change” value is reported as 0.6339 and the “Log (Fold Change)” value is reported as -0.198.
With B10 the “Fold Change” value was 0.6341 and the “Log (Fold Change)” value was -0.1979.
